Assay results as given in patent publication US20250339531A1, “DUX4 POLYPEPTIDES AND NUCLEIC ACIDS FOR TREATING INFLAMMATORY AND AUTOIMMUNE CONDITIONS” (Fred Hutchinson Cancer Center, priority 2021, published 2025).

System: proteins that co-immunoprecipitated with DUX4-CTD constructs expressed in MB135 myoblasts
Test: LC-MS of proteins co-immunoprecipitated with DUX4-CTD (Table 1) and western validation
Type: binding, human
Set-up: key to 4. mL1dL2 + Dox + IFNG / 4. + IFNG mix / 4. longCTD + Dox + IFNG / 3. + IFNg + Dox longCTD / 3. + Dox longCTD / 3. + IFNG longCTD: peptide-spectrum matches (PSMs) per protein
Settings: for 4. longCTD + Dox + IFNG: LC-MS counts of the listed protein co-immunoprecipitated with DUX4-CTD bait longCTD, experiment 4, Dox + IFNG; for 3. + Dox longCTD / 3. + IFNg + Dox longCTD: bait longCTD; for 3. + Dox longCTD: experiment 3, Dox only; for 3. + IFNg + Dox longCTD: experiment 3, IFNg + Dox; for SUM of PSMS: sum over all samples
Method in brief: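 Two independent experiments compared uninduced, doxycycline and doxycycline+IFNG MB135iDUX4-CTD (plus MB135iDUX4mL1dL2) myoblasts. Anti-FLAG pulldowns (3 h, 4 °C) were eluted in LDS buffer for western validation or with FLAG peptide for trypsin digestion and Orbitrap LC-MS; hits needed ≥2 PSMs in both experiments, ranked by total PSMs.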

Molecule | 4. longCTD + Dox + IFNG | 3. + Dox longCTD | 3. + IFNg + Dox longCTD | SUM of PSMS
Q9UN86 (protein, UniProt Q9UN86 1-482, looked up, full-length) MVMEKPSPLLVGREFVRQYYTLLNKAPEYLHRFYGRNSSYVHGGVDASGKPQEAVYGQNDIHHKVLSLNFSECHTKIRHVDAHATLSDGVVVQVMGLLSNSGQPERKFMQTFVLAPEGSVPNKFYVHNDMFRYEDEVFGDSEPELDEESEDEVEEEQEERQPSPEPVQENANSGYYEAHPVTNGIEEPLEESSHEPEPEPESETKTEELKPQVEEKNLEELEEKSTTPPPAEPVSLPQEPPKAFSWASVTSKNLPPSGTVSSSGIPPHVKAPVSQPRVEAKPEVQSQPPRVREQRPRERPGFPPRGPRPGRGDMEQNDSDNRRIIRYPDSHQLFVGNLPHDIDENELKEFFMSFGNVVELRINTKGVGGKLPNFGFVVFDDSEPVQRILIAKPIMFRGEVRLNVEEKKTRAARERETRGGGDDRRDIRRNDRGPGGPRGIVGGGMMRDRDGRGPPPRGGMAQKLGSGRGTGQMEGRFTGQRR | 1 | 1 | 3 | 6
P26196 (protein, UniProt P26196 1-483, looked up, full-length) MSTARTENPVIMGLSSQNGQLRGPVKPTGGPGGGGTQTQQQMNQLKNTNTINNGTQQQAQSMTTTIKPGDDWKKTLKLPPKDLRIKTSDVTSTKGNEFEDYCLKRELLMGIFEMGWEKPSPIQEESIPIALSGRDILARAKNGTGKSGAYLIPLLERLDLKKDNIQAMVIVPTRELALQVSQICIQVSKHMGGAKVMATTGGTNLRDDIMRLDDTVHVVIATPGRILDLIKKGVAKVDHVQMIVLDEADKLLSQDFVQIMEDIILTLPKNRQILLYSATFPLSVQKFMNSHLQKPYEINLMEELTLKGVTQYYAYVTERQKVHCLNTLFSRLQINQSIIFCNSSQRVELLAKKISQLGYSCFYIHAKMRQEHRNRVFHDFRNGLCRNLVCTDLFTRGIDIQAVNVVINFDFPKLAETYLHRIGRSGRFGHLGLAINLITYDDRFNLKSIEEQLGTEIKPIPSNIDKSLYVAEYHSEPVEDEKP | 1 | 2 | 3 | 6
Q15233 (protein, UniProt Q15233 1-471, looked up, full-length) MQSNKTFNLEKQNHTPRKHHQHHHQQQHHQQQQQQPPPPPIPANGQQASSQNEGLTIDLKNFRKPGEKTFTQRSRLFVGNLPPDITEEEMRKLFEKYGKAGEVFIHKDKGFGFIRLETRTLAEIAKVELDNMPLRGKQLRVRFACHSASLTVRNLPQYVSNELLEEAFSVFGQVERAVVIVDDRGRPSGKGIVEFSGKPAARKALDRCSEGSFLLTTFPRPVTVEPMDQLDDEEGLPEKLVIKNQQFHKEREQPPRFAQPGSFEYEYAMRWKALIEMEKQQQDQVDRNIKEAREKLEMEMEAARHEHQVMLMRQDLMRRQEELRRMEELHNQEVQKRKQLELRQEEERRRREEEMRRQQEEMMRRQQEGFKGTFPDAREQEIRMGQMAMGGAMGINNRGAMPPAPVPAGTPAPPGPATMMPDGTLGLTPPTTERFGQAATMEGIGAIGGTPPAFNRAAPGAEFAPNKRRRY |  | 1 | 8 | 10
Q8NC51 (protein, UniProt Q8NC51 1-408, looked up, full-length) MPGHLQEGFGCVVTNRFDQLFDDESDPFEVLKAAENKKKEAGGGGVGGPGAKSAAQAAAQTNSNAAGKQLRKESQKDRKNPLPPSVGVVDKKEETQPPVALKKEGIRRVGRRPDQQLQGEGKIIDRRPERRPPRERRFEKPLEEKGEGGEFSVDRPIIDRPIRGRGGLGRGRGGRGRGMGRGDGFDSRGKREFDRHSGSDRSSFSHYSGLKHEDKRGGSGSHNWGTVKDELTESPKYIQKQISYNYSDLDQSNVTEETPEGEEHHPVADTENKENEVEEVKEEGPKEMTLDEWKAIQNKDRAKVEFNIRKPNEGADGQWKKGFVLHKSKSEEAHAEDSVMDHHFRKPANDITSQLEINFGDLGRPGRGGRGGRGGRGRGGRPNRGSRTDKSSASAPDVDDPEAFPALA | 1 | 2 | 3 | 6
P17655 (protein, UniProt P17655 1-700, looked up, full-length) MAGIAAKLAKDREAAEGLGSHDRAIKYLNQDYEALRNECLEAGTLFQDPSFPAIPSALGFKELGPYSSKTRGIEWKRPTEICADPQFIIGGATRTDICQGALGDCWLLAAIASLTLNEEILARVVPLNQSFQENYAGIFHFQFWQYGEWVEVVVDDRLPTKDGELLFVHSAEGSEFWSALLEKAYAKINGCYEALSGGATTEGFEDFTGGIAEWYELKKPPPNLFKIIQKALQKGSLLGCSIDITSAADSEAITFQKLVKGHAYSVTGAEEVESNGSLQKLIRIRNPWGEVEWTGRWNDNCPSWNTIDPEERERLTRRHEDGEFWMSFSDFLRHYSRLEICNLTPDTLTSDTYKKWKLTKMDGNWRRGSTAGGCRNYPNTFWMNPQYLIKLEEEDEDEEDGESGCTFLVGLIQKHRRRQRKMGEDMHTIGFGIYEVPEELSGQTNIHLSKNFFLTNRARERSDTFINLREVLNRFKLPPGEYILVPSTFEPNKDGDFCIRVFSEKKADYQAVDDEIEANLEEFDISEDDIDDGFRRLFAQLAGEDAEISAFELQTILRRVLAKRQDIKSDGFSIETCKIMVDMLDSDGSGKLGLKEFYILWTKIQKYQKIYREIDVDRSGTMNSYEMRKALEEAGFKMPCQLHQVIVARFADDQLIIDFDNFVRCLVRLETLFKIFKQLDPENTGTIELDLISWLCFSVL | 3 |  | 1 | 4
O94919 (protein, UniProt O94919 1-500, looked up, full-length) MGTARWLALGSLFALAGLLEGRLVGEEEAGFGECDKFFYAGTPPAGLAADSHVKICQRAEGAERFATLYSTRDRIPVYSAFRAPRPAPGGAEQRWLVEPQIDDPNSNLEEAINEAEAITSVNSLGSKQALNTDYLDSDYQRGQLYPFSLSSDVQVATFTLTNSAPMTQSFQERWYVNLHSLMDRALTPQCGSGEDLYILTGTVPSDYRVKDKVAVPEFVWLAACCAVPGGGWAMGFVKHTRDSDIIEDVMVKDLQKLLPFNPQLFQNNCGETEQDTEKMKKILEVVNQIQDEERMVQSQKSSSPLSSTRSKRSTLLPPEASEGSSSFLGKLMGFIATPFIKLFQLIYYLVVAILKNIVYFLWCVTKQVINGIESCLYRLGSATISYFMAIGEELVSIPWKVLKVVAKVIRALLRILCCLLKAICRVLSIPVRVLVDVATFPVYTMGAIPIVCKDIALGLGGTVSLLFDTAFGTLGGLFQVVFSVCKRIGYKVTFDNSGEL | 2 |  | 1 | 5
P52597 (protein, UniProt P52597 1-415, looked up, full-length) MMLGPEGGEGFVVKLRGLPWSCSVEDVQNFLSDCTIHDGAAGVHFIYTREGRQSGEAFVELGSEDDVKMALKKDRESMGHRYIEVFKSHRTEMDWVLKHSGPNSADSANDGFVRLRGLPFGCTKEEIVQFFSGLEIVPNGITLPVDPEGKITGEAFVQFASQELAEKALGKHKERIGHRYIEVFKSSQEEVRSYSDPPLKFMSVQRPGPYDRPGTARRYIGIVKQAGLERMRPGAYSTGYGGYEEYSGLSDGYGFTTDLFGRDLSYCLSGMYDHRYGDSEFTVQSTTGHCVHMRGLPYKATENDIYNFFSPLNPVRVHIEIGPDGRVTGEADVEFATHEEAVAAMSKDRANMQHRYIELFLNSTTGASNGAYSSQVMQGMGVSAAQATYSGLESQSVSGCYGAGYSGQNSMGGYD | 1 | 1 | 4 | 6
Q86YD1 (protein, UniProt Q86YD1 1-416, looked up, full-length) MVRPRRAPYRSGAGGPLGGRGRPPRPLVVRAVRSRSWPASPRGPQPPRIRARSAPPMEGARVFGALGPIGPSSPGLTLGGLAVSEHRLSNKLLAWSGVLEWQEKRRPYSDSTAKLKRTLPCQAYVNQGENLETDQWPQKLIMQLIPQQLLTTLGPLFRNSQLAQFHFTNRDCDSLKGLCRIMGNGFAGCMLFPHISPCEVRVLMLLYSSKKKIFMGLIPYDQSGFVSAIRQVITTRKQAVGPGGVNSGPVQIVNNKFLAWSGVMEWQEPRPEPNSRSKRWLPSHVYVNQGEILRTEQWPRKLYMQLIPQQLLTTLVPLFRNSRLVQFHFTKDLETLKSLCRIMDNGFAGCVHFSYKASCEIRVLMLLYSSEKKIFIGLIPHDQGNFVNGIRRVIANQQQVLQRNLEQEQQQRGMGG | 2 | 2 |  | 4
P29508 (protein, UniProt P29508 1-390, looked up, full-length) MNSLSEANTKFMFDLFQQFRKSKENNIFYSPISITSALGMVLLGAKDNTAQQIKKVLHFDQVTENTTGKAATYHVDRSGNVHHQFQKLLTEFNKSTDAYELKIANKLFGEKTYLFLQEYLDAIKKFYQTSVESVDFANAPEESRKKINSWVESQTNEKIKNLIPEGNIGSNTTLVLVNAIYFKGQWEKKFNKEDTKEEKFWPNKNTYKSIQMMRQYTSFHFASLEDVQAKVLEIPYKGKDLSMIVLLPNEIDGLQKLEEKLTAEKLMEWTSLQNMRETRVDLHLPRFKVEESYDLKDTLRTMGMVDIFNGDADLSGMTGSRGLVLSGVLHKAFVEVTEEGAEAAAATAVVGFGSSPTSTNEEFHCNHPFLFFIRQNKTNSILFYGRFSSP |  |  | 2 | 4
